17 variants from FireProtDB (doi:10.1021/bi00005a026) can be followed below.

The chains are these.
B1: Subtilisin-chymotrypsin inhibitor-2A, P01053 (parent)
chain: MSSVEKKPEGVNTGAGDRHNLKTEWPELVGKSVEEAKKVILQDKPEAQIIVLPVGTIVTMEYRIDRVRLFVDKLDNIAQVPRVG

Variants of B1 are the subject of the data set. To be noted: Hordeum vulgare, pH 6.3, Thermal, Fluorescence, phosphate 10 mM, reversible: yes, structure 2CI2, whole UniProt chain shown; for ddG of mutation (higher = less stable): 46.6 °C.

Regarding MSSVEKKPEGVNTGAGDRHNLKTEWPELVGKSVEEAKKVILQDKPEAQVIVLPVGTIVTMEYRIDRVRLFVDKLDNIAQVPRVG [I49V], the “ddG of mutation (higher = less stable)” value came out at 1.11 kcal/mol; the Tm is 39.4 °C; the “change of melting temperature, mutant - wild type (higher = more stable)” value (“change of melting temperature, mutant” for short) is -7.2 °C; the “unfolding enthalpy (van 't Hoff)” value stood at 27.8 kcal/mol.
MSSVEKKPEGVNTGAGDRHNLKTEWPELVGKSVEEAKGVILQDKPEAQIIVLPVGTIVTMEYRIDRVRLFVDKLDNIAQVPRVG [K38G]: the “ddG of mutation (higher = less stable)” value was 0.97 kcal/mol; the Tm was found to be 35.8 °C; the “change of melting temperature, mutant” value was -10.8 °C; the “unfolding enthalpy (van 't Hoff)” value was found to be 37.6 kcal/mol.
Regarding MSSVEKKPEGVNTGAGDRHNLKTEWPELVGKSVEEAKAVILQDKPEAQIIVLPVGTIVTMEYRIDRVRLFVDKLDNIAQVPRVG [K38A], the “ddG of mutation (higher = less stable)” value is -0.23 kcal/mol; the Tm is 41.4 °C; the “change of melting temperature, mutant” value was -5.2 °C; the “unfolding enthalpy (van 't Hoff)” value was determined as 34.8 kcal/mol.
In the case of MSSVEKKPEGVNTGAGDRHNLKTEWPELVGKSVEEAKKVILQDKPEAQIAVLPVGTIVTMEYRIDRVRLFVDKLDNIAQVPRVG [I50A], the “ddG of mutation (higher = less stable)” value was 2.12 kcal/mol.
Turning to MSSVEKKPEGVNTGAGDRHNLKTEWPELVGKSVEEAKKVILQDKPEAQIVVLPVGTIVTMEYRIDRVRLFVDKLDNIAQVPRVG [I50V], the “ddG of mutation (higher = less stable)” value is -0.08 kcal/mol; the Tm is 48 °C; the “change of melting temperature, mutant” value was found to be 1.4 °C; the “unfolding enthalpy (van 't Hoff)” value was determined as 50.9 kcal/mol.
MSSVEKKPEGVNTGAGDRHNLKTEWPELVGKSVEEAKKAILQDKPEAQIIVLPVGTIVTMEYRIDRVRLFVDKLDNIAQVPRVG [V39A]: the “ddG of mutation (higher = less stable)” value is 0.48 kcal/mol; the melting temperature (Tm) is 41.9 °C; the “change of melting temperature, mutant” value is -4.7 °C; the “unfolding enthalpy (van 't Hoff)” value came to 30 kcal/mol.
For MSSVEKKPEGVNTGAGDRHNLKTEWPEAVGKSVEEAKKVILQDKPEAQIIVLPVGTIVTMEYRIDRVRLFVDKLDNIAQVPRVG [L28A], in that order: 2.68 kcal/mol, 24.1 °C, -22.5 °C and 34.6 kcal/mol.
Regarding MSSVEKKPEGVNTGAGDRHNLKTEWPELVGKSVEEAKKVVLQDKPEAQIIVLPVGTIVTMEYRIDRVRLFVDKLDNIAQVPRVG [I40V], the “ddG of mutation (higher = less stable)” value stood at 1.3 kcal/mol; the Tm was found to be 31.8 °C; the “change of melting temperature, mutant” value was -14.8 °C; the “unfolding enthalpy (van 't Hoff)” value stood at 26.3 kcal/mol.
Turning to MSSVEKKPEGVNTGAGDRHNLKTEWPELVGKSVNEAKKVILQDKPEAQIIVLPVGTIVTMEYRIDRVRLFVDKLDNIAQVPRVG [E34N], the “ddG of mutation (higher = less stable)” value turned out to be 0.7 kcal/mol; the midpoint of thermal melting (Tm) was 42.8 °C; the “change of melting temperature, mutant” value is -3.8 °C; the “unfolding enthalpy (van 't Hoff)” value stood at 36.1 kcal/mol.
Consider MSSVEKKPEGVNTGAGDRHNLKTEWPELVGKSVEEAAKVILQDKPEAQIIVLPVGTIVTMEYRIDRVRLFVDKLDNIAQVPRVG [K37A], for which the “ddG of mutation (higher = less stable)” value was found to be 0.49 kcal/mol; the midpoint of thermal melting (Tm) is 34 °C; the “change of melting temperature, mutant” value was -12.6 °C; the “unfolding enthalpy (van 't Hoff)” value stood at 27.2 kcal/mol.
Take MSSVEKKPEGVNTGAGDRHNLKTEWPELVGKAVAAAKKVILQDKPEAQIIVLPVGTIVTMEYRIDRVRLFVDKLDNIAQVPRVG [S32A E34A E35A]: the “ddG of mutation (higher = less stable)” value was 1.67 kcal/mol.
Consider MSSVEKKPEGVNTGAGDRHNLKTEWPELVGKSVAAAKKVILQDKPEAQIIVLPVGTIVTMEYRIDRVRLFVDKLDNIAQVPRVG [E34A E35A], for which the “ddG of mutation (higher = less stable)” value came out at 0.76 kcal/mol.
As for MSSVEKKPEGVNTGAGDRHNLKAEWPELVGKSVEEAKKVILQDKPEAQIIVLPVGTIVTMEYRIDRVRLFVDKLDNIAQVPRVG [T23A], the “ddG of mutation (higher = less stable)” value is 0.85 kcal/mol; the Tm is 43.7 °C; the “change of melting temperature, mutant” value is -2.9 °C.
Consider MSSVEKKPEGVNTGAGDRHNLKTEWPELVGKAVEEAKKVILQDKPEAQIIVLPVGTIVTMEYRIDRVRLFVDKLDNIAQVPRVG [S32A], for which the “ddG of mutation (higher = less stable)” value was 0.89 kcal/mol; the Tm was determined as 38.2 °C; the “change of melting temperature, mutant” value is -8.4 °C; the “unfolding enthalpy (van 't Hoff)” value is 35.4 kcal/mol.
Turning to MSSVEKKPEGVNTGAGDRHNLKTEWPELVGKSVEEAKKVILQDKPEAQIIVAPVGTIVTMEYRIDRVRLFVDKLDNIAQVPRVG [L52A], the “ddG of mutation (higher = less stable)” value is 2.37 kcal/mol; the Tm stood at 37.5 °C; the “change of melting temperature, mutant” value is -9.1 °C; the “unfolding enthalpy (van 't Hoff)” value is 42.5 kcal/mol.
The corresponding values for MSSVEKKPEGVNTGAGDRHNLKTEWPELVGKSVEEAKKVILQDKPEAQIIVVPVGTIVTMEYRIDRVRLFVDKLDNIAQVPRVG [L52V] are 0.5 kcal/mol, 46.1 °C, -0.5 °C and 37.3 kcal/mol.
MSSVEKKPEGVNTGAGDRHNLKTEWPELVGKSVEEAKKVILQDKPEAQIIVLPAGTIVTMEYRIDRVRLFVDKLDNIAQVPRVG [V54A]: the “ddG of mutation (higher = less stable)” value is 0.63 kcal/mol; the melting temperature (Tm) is 43.8 °C; the “change of melting temperature, mutant” value was -2.8 °C; the “unfolding enthalpy (van 't Hoff)” value was found to be 40.5 kcal/mol.
